The text below walks through data of patent US20090130105A1.

The target of test [1] is human IGF-1R(1-903)-Fc (human) (UniProt P08069). Briefly: ELISA, blocking of 320 nM IGF-1 His on biotinylated hIGF-1R-Fc.
For test [2] the target is unchanged. Briefly: ELISA on hIGF-1R-Fc; competitor Zenon-labeled αIR3; +++++ = 90-100%. For orientation: An ELISA detects its analyte on a solid surface through an enzyme-linked reagent.
Test [3] shares this target. Briefly: ELISA on hIGF-1R-Fc; competitor biotinylated M14-G11; +++++ = 90-100%.

Chain of human IGF-1R(1-903)-Fc (human) (P08069 31-933): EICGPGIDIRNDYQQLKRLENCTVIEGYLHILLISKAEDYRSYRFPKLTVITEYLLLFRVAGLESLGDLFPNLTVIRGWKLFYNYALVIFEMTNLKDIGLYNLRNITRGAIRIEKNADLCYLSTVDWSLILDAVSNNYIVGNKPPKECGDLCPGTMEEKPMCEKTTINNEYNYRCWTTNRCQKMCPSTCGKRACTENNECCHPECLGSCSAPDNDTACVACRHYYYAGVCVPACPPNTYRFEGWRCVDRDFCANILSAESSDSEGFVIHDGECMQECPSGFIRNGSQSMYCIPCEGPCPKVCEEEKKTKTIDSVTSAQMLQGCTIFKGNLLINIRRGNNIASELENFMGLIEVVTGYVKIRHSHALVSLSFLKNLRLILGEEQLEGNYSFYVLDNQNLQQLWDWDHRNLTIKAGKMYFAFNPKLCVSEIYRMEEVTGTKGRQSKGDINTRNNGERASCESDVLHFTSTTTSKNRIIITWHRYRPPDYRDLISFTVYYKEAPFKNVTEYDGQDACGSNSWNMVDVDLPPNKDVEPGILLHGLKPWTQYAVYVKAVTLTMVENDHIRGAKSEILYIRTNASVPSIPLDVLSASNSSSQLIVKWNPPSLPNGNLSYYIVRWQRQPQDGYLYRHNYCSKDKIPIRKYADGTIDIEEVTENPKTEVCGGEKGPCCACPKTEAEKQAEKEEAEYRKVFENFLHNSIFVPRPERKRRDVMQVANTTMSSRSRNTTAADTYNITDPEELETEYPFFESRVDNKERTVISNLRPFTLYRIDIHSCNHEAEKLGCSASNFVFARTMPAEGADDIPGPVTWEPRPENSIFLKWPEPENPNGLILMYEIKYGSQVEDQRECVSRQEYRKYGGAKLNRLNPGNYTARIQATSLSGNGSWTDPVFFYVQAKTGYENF

Usually IC50 stands for the concentration at which inhibition is half-maximal. As to αIR3 antibody, in test [1], the % IGF-1 (at 320 nM) bound to IGF-1R at saturating antibody concentrations came to 23% and the IC50 amounted to 4.9 nM. The substance further gave a percent competition in test [2] of 90 to 100%. In addition, the percent competition in test [3] was 90 to 100%.
